B1: GFP-Sgo1 (472-530) [S. cerevisiae] / Ycg1 (6–932, Δ499–555)-Brn1 (384–529) [S. cerevisiae] (parent complex)
chain 1: KNEKKLTSNNSPKKSSPLLDITNKSENKKKSTRTKKLFKNAIVNNLSDENSTTRPSKSS
chain 2: GIDINTKIFNSVAEVFQKAQGSYAGHRKHIAVLKKIQSKAVEQGYEDAFNFWFDKLVTKILPLKKNEIIGDRIVKLVAAFIASLERELILAKKQNYKLTNDEEGIFSRFVDQFIRHVLRGVESPDKNVRFRVLQLLAVIMDNIGEIDESLFNLLILSLNKRIYDREPTVRIQAVFCLTKFQDEEQTEHLTELSDNEENFEATRTLVASIQNDPSAEVRRAAMLNLINDNNTRPYILERARDVNIVNRRLVYSRILKSMGRKCFDDIEPHIFDQLIEWGLEDRELSVRNACKRLIAHDWLNALDGDLIELLEKLDVSRSSVCVKAIEALFQSRPDILSKIKFPESIWKDFTVEIAFLFRAIYLYCLDNNITEMLEENFPEASKLSEHLNHYILLRYHHNDISNDSQSHFDYNTLEFIIEQLSIAAERYDYSDEVGRRSMLTVVRNMLALTTLSEPLIKIGIRVMKSLSINEKDFVTMAIEIINDIRDDDIEKQESESDIINNLPPEKEASSATIVLCLTRSSYMLELVNTPLTENILIASLMDTLITPAVRNTAPNIRELGVKNLGLCCLLDVKLAIDNMYILGMCVSKGNASLKYIALQVIVDIFSVHGNTVVDGEGKVDSISLHKIFYKVLKNNGLPECQVIAAEGLCKLFLADVFTDDDLFETLVLSYFSPINSSNEALVQAFAFCIPVYCFSHPAHQQRMSRTAADILLRLCVLWDDLQSSVIPEVDREAMLKPNIIFQQLLFWTDPRNLVNQTGSTKKDTVQLTFLIDVLKIYAQIEKKEIKKMIITNINAIFLSSEQDYSTLKELLEYSDDIAENDNLDNVSKNALDKLRNNLNSLIEEINERSETQTKDENNTANDQYSSILGN
chain 3: SIFEKDLMAYFDENLNRNWRGREHWKVRNFKKANLVNKESDLLEETRTTIGDTTDKNTTDDKSMDTKKKHKQKKVLEIDFFKTDDSFEDKVFASKGRTKIDMPIKNRKNDTHYLLPDDFHFSTDRITRLFIKPGQKMSLFSHRKHT

Variants of: B1
Test: co-immunoprecipitation (anti-GFP-coupled beads), silver-stained SDS-PAGE band quantification; 25 mM HEPES pH 7.5, 500 mM NaCl, 10% glycerol, 1 mM DTT, 0.1% NP-40; 2.5 h incubation; parent: 1; read off a plot

Question: chain 1 KNEKKLTSNNSPKKSSPLLDITNKSENKKKSTRTKKLFKNAEENNLSDENSTTRPSKSS [chain 1 I42E, chain 1 V43E] was tested. Which ratio to parent did it give?
Answer: ~0.51

Question: With chain 1 KNEKKLTSNNSPKKSSPLLDITNKSENKKKSTRTKKLFKNAIVNNESDENSTTRPSKSS [chain 1 L46E] as the variant, how does the ratio to parent read?
Answer: ~0.66

Question: For chain 1 KNEKKLTSNNSPKKSSPLLDITNKSENKKKSTRTKKEEKNAEENNESDENSTTRPSKSS [chain 1 L37E, chain 1 F38E, chain 1 I42E, chain 1 V43E, chain 1 L46E], which ratio to parent is on record?
Answer: ~0.84

Question: chain 1 KNEKKLTSNNSPKKSSPLLDITNKSENKKKSTRTKKEEKNAEENNLSDENSTTRPSKSS [chain 1 L37E, chain 1 F38E, chain 1 I42E, chain 1 V43E] was tested. Which ratio to parent did it give?
Answer: ~0.54

Question: For chain 1 KNEKKLTSNNSPKKSSPLLDITNKSENKKKSTRTKKEEKNAIVNNLSDENSTTRPSKSS [chain 1 L37E, chain 1 F38E], which ratio to parent is on record?
Answer: ~0.37
